Experimental data from the supplement of paper PMC12042874.
± gives the uncertainty stated by the source.

Assay: amyloid nucleation score (Sup35N fusion, yeast selection) (log enrichment); library NNK1; higher = more nucleation; inactive = no reads after selection
In short: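 The nucleation score, computed with DiMSum, is the log enrichment of output over input reads, centred on the mode score of non-aggregating sequences. Sequences with under 100 input reads were dropped. Reads were generated by Illumina sequencing of plasmid inserts from psi-negative yeast with Sup35N fused to peptides of 20 random codons, induced with 100 μM copper sulfate for 24 hours and grown 7 days at 30°C on medium lacking adenine and uracil.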

| Substance | amyloid nucleation score |
| --- | --- |
| ERRDVRIYKSCGLGHVFYEG | 4.91 ± 0.056 |
| ERTICSVITMNHGSSAYQGS | -0.081 ± 0.47 |
| ERWIVVPDESTTRTTHRHIN | 0.147 ± 1.6 |
| ESARCVRVTALSLWHRDQRS | 1.02 ± 0.8 |
| ESEWNIMPFDNLYLGRETVW | inactive |
| ESHSSTKGSEWLRHSHSDGV | 0.632 ± 0.39 |
| ESLSCKFLCVYCCL | inactive |
| ESVLWVFYV | 0.1 ± 0.41 |
| ETACLYLLFMSKACMRMMNS | -0.219 ± 1.1 |
| ETALVVLTRVTEGCGRGQKT | 0.668 ± 0.77 |
| EVCCNVKTL | 0.431 ± 0.28 |
| EVCWNSCMVADSVSVISNPA | -0.231 ± 0.27 |
| EVFRRSLGTTDAVGPKHDAQ | 2.39 ± 0.17 |
| EVIIIGRSIIVLGMGGTKFW | 1.72 ± 0.24 |
| EVRRFMTPGENESSREVAYF | -0.02 ± 0.45 |
| EVRSQSNEYHLRNWCVYK | 1.31 ± 0.23 |
| EVSLLSFLE | 0.68 ± 0.39 |
| EYGDDVLWMFSTILCVRGEW | -0.626 ± 0.47 |
| EYGNGSIKPVGRHWLEGYLH | -0.701 ± 1 |
| FADERIGYSIK | -0.336 ± 0.44 |
| FALGCF | -0.079 ± 0.36 |
| FASDRLYWTWK | 0.255 ± 0.53 |
| FASRVCMRSNQKIPAWQLWS | -0.359 ± 0.29 |
| FAVLHNMMFMKYVRLFLVVT | 0.247 ± 0.45 |
| FAYFSVNCL | inactive |
| FCELELMVHVVMPFKAVS | 0.831 ± 0.77 |

| Substance | amyloid nucleation score |
| --- | --- |
| FCFMWGYMVRVIV | inactive |
| FCFMYDGHEAWSKAFSRRNV | 0.196 ± 0.3 |
| FCHYTVLYDSPTLLVRVTWA | -0.681 ± 0.85 |
| FCNLYGKQTYLSGFGIHCVV | 0.127 ± 0.23 |
| FDDCFSLLIVPDSTVITKEQ | 0.444 ± 0.4 |
| FDFACCTTGIGPFSCDLGSG | 7.694 ± 0.052 |
| FDFCVEIWLRVFLNMWGRLR | 0.689 ± 0.33 |
| FDGVRARDALFSGCL | -0.705 ± 0.59 |
| FDKFKNSTVREFMWVEFSVG | 0.745 ± 0.74 |
| FDKSRVDRLSDKGRCCCVL | 1.36 ± 0.69 |
| FDLGHCIDSRRPGLCVMVLV | 0.035 ± 0.34 |
| FDRMNCALGVPLWDALKDGS | 3.4 ± 0.14 |
| FDYPDGDVVVNKFDSDVCYR | 0.616 ± 0.84 |
| FEGALRLTIRSQKD | 0.574 ± 0.57 |
| FEGNQDIYMVRTWKDKMRLV | -0.107 ± 0.45 |
| FEHVSMWIVCFVKNLKYRIR | -0.86 ± 0.86 |
| FELICNRNGNSPRYAFKKIP | 0.976 ± 0.35 |
| FESRDVRSLWWDWSYSNKTV | 0.191 ± 0.28 |
| FEVNFPAYIYWSDCPVVGVS | -0.127 ± 0.38 |
| FFELSVYH | -0.174 ± 0.65 |
| FFFHSKDVYYGDFVHLSFAG | -0.352 ± 1.2 |
| FFGCFGLYYAMAHLLYPSLE | 1.48 ± 0.8 |
| FFLSLARVGVILHPMMVLTG | -0.35 ± 0.64 |
| FFLWGRW | -0.341 ± 0.43 |
| FFPTEYHALENLLHADVRVK | -0.682 ± 0.36 |
| FFRRNHGYNI | 0.092 ± 0.43 |

| Substance | amyloid nucleation score |
| --- | --- |
| FFRTLTWR | 1.11 ± 0.55 |
| FFTLHAFQ | inactive |
| FFTRGIVMQRRQHWNGVYGS | 0.737 ± 0.49 |
| FFVLFEVYMVWFTEGFARLA | -0.733 ± 0.57 |
| FFVLKGECVGGLMPWTRVTA | -0.24 ± 0.92 |
| FGESPH | 0.494 ± 0.74 |
| FGKGNEGTIGNI | -0.22 ± 0.76 |
| FGKSYRRFFARTKFGKAGGP | -1.29 ± 1.8 |
| FGLCCRSRVFWRWLIKDWKD | -0.566 ± 1.9 |
| FGMLIAVRSR | 0.315 ± 0.29 |
| FGMWYSVRISTSLVYVMGVL | -0.23 ± 0.28 |
| FGRSVLDRVKVMHVRVVVSV | -0.372 ± 0.63 |
| FGSRVVGRCVETSHSILFVL | 0.58 ± 1.1 |
| FGSSMLDFNLDFDKWCE | 3.66 ± 0.076 |
| FGTFCMGRPYRYYGCNGGFR | 0.674 ± 0.35 |
| FGTLGK | 1.88 ± 0.38 |
| FGYNILYINQSTWLLNFCQV | 6.56 ± 0.049 |
| FHCGMGIF | -0.197 ± 0.32 |
| FHCTNSMVMLGRHATMLFFY | 5.92 ± 0.095 |
| FHIQEANIFRE | -0.17 ± 0.24 |
| FHLVRGCIFITCKYVGRGIV | 1.32 ± 0.57 |
| FHMENALISLGCSSGLRQMA | 0.803 ± 0.54 |
| FHMPYLCNAKWRECLGFSAH | 0.279 ± 1.4 |
| FHTLDVCPGRVLNLYNVKVW | -0.427 ± 1 |
| FHVIGSARTLVVAQYLK | inactive |
| FHWVGVSYQLKMRRVKPKGV | -0.441 ± 1.1 |

| Substance | amyloid nucleation score |
| --- | --- |
| FIFHSIGRSKISYKS | -0.229 ± 0.59 |
| FIFPAHCSLRSIDFSQGYIR | -0.321 ± 0.36 |
| FIIEQANGQGYNYLHI | -0.481 ± 0.48 |
| FIIVEECNFRNRRLTYRLFI | 0.816 ± 0.49 |
| FILIYTAPFIGGLVGLGDGH | inactive |
| FISCCARIFTTCGIAD | 1.19 ± 0.14 |
| FIWDAWLGRKVSESHTVFHS | 0.017 ± 0.21 |
| FIYFYGRYNSSGDPFQVFLG | -0.578 ± 0.34 |
| FKLWQVFRKSSMFQRGWGIG | 0.462 ± 0.78 |
| FKPEKRLGATG | 0.694 ± 0.45 |
| FKRRLGCLKPRNY | -0.333 ± 0.52 |
| FKRSLRCLYVVACNALYWDA | -0.026 ± 0.51 |
| FKSTPVFKQWRNGGTDGLTG | -0.958 ± 1.5 |
| FKSYWGSTWRSNSWVGDMRG | -0.225 ± 0.46 |
| FKYTHIETVIQVLYFRTWSY | -0.485 ± 0.33 |
| FLCPRSCHGPNTFDFIMWSF | 0.198 ± 0.66 |
| FLCSIISYS | 5.572 ± 0.048 |
| FLEKSFLCSWSLVRTEGEWA | -0.333 ± 0.57 |
| FLGMIFTELSINMKVSRRP | -1.12 ± 1.2 |
| FLHFMVY | 0.027 ± 0.64 |
| FLIIIRPISRRTCRVCFKQT | -0.246 ± 0.44 |
| FLLESL | inactive |
| FLLIVVCWDLRLSSFHKLYF | 0.657 ± 0.73 |
| FLMWMWLVSNRKHWLFTDKV | -2.54 ± 2.7 |
| FLNNLAGWGYPCFTGVYANA | -0.195 ± 0.39 |
| FLNRYICKFDKVSQHGVRLW | 0.261 ± 0.84 |

| Substance | amyloid nucleation score |
| --- | --- |
| FLQRIKNHAVSAGWIYSLSK | 0.106 ± 0.43 |
| FLRELMRCIGASSTFLGVEK | -0.204 ± 0.29 |
| FLRFIRSVNFYVKEYAESLL | -0.691 ± 0.52 |
| FLSLFVSVV | -0.18 ± 0.97 |
| FLTLCVLNRLWH | 4.85 ± 0.11 |
| FLTSECSTSSLHS | 0.56 ± 0.85 |
| FLVCLFINVVTPRTYHLWVY | -0.174 ± 0.49 |
| FLVKSIRTVGL | 0.605 ± 0.36 |
| FLVPEVEKIFNIRVLEVRLM | -0.834 ± 0.6 |
| FLVQNRRISEVIELWALLS | -1.19 ± 2.7 |
| FLYVVARY | 0.19 ± 0.71 |
| FLYWLVDKLG | 0.37 ± 0.51 |
| FMCIPV | 0.189 ± 0.55 |
| FMFYTYHVNSYFSILCSVSN | 0.655 ± 0.46 |
| FMGVINGEITLVNSFVTYMR | 7.768 ± 0.051 |
| FMQLTYRMCGSPSIRVNGVL | 0.685 ± 0.34 |
| FMRDCSYI | 0.687 ± 0.79 |
| FMRSATCKVWNL | -0.079 ± 0.51 |
| FMSYLNYRQCPPVLDEEVVP | 0.241 ± 1 |
| FNCLMALIFPDVLDCSYSVD | 1.26 ± 0.9 |
| FNDFSLSYARFCINSMNRYP | 0.968 ± 0.13 |
| FNFNFRRFYHVRGFDSRSHL | 0.473 ± 0.58 |
